Measured values as given in US20250312499A1 (RADIONETICS ONCOLOGY, published 2025).
Numbered stars: 1 amine (or outer) side, 2 acyl side, 3 side chain; on linkers, the order of the positions; unused ones are H or OH. Square brackets hold non-standard residues; d marks the D form. * marks the point of attachment. X2 = 4‑amino‑1‑((3-fluoro-4-methylbenzyl)glycyl)piperidine‑4‑carboxylic acid, Cc1ccc(CN(CC(=O)N2CCC(N[*:1])(C(=O)[*:2])CC2)[*:3])cc1F; X10 = 3‑(2-(2-(3-(4-iodophenyl)propanamido)ethoxy)ethoxy)propanoyl, O=C(CCc1ccc(I)cc1)NCCOCCOCCC(=O)*; DOTA = O=C(O)CN1CCN(CC(=O)O)CCN(CC(=O)*)CCN(CC(=O)O)CC1; Api(1-amidino) = N=C(N)N1CCC(N)(C(=O)O)CC1; 4Pal = N[C@@H](Cc1ccncc1)C(=O)O; d4Pal = N[C@H](Cc1ccncc1)C(=O)O; Ahx = NCCCCCC(=O)O; azaGly = NNC(=O)O

target: T1, human kisspeptin receptor (KISS1R) (human, UniProt Q969F8 1-398); assay: radioligand competition, hKISS1R membranes; legend: A is <10 nM
T1 construct: whole, on cells; Assayed as crude membrane fractions of tetracycline-induced Flp-In T-Rex 293 cells expressing the receptor; also called GPR54; hKiSSR
Protocol: The cells are grown to 85-100% confluence on standard tissue culture dishes in Dulbecco's Modified Eagles Medium (DMEM) (Corning) supplemented with 10% FBS (Gemini), 1% penicillin-streptomycin-glutamine (Gibco), 500 μg/mL hygromycin, and 15 μg/mL blastacidin. 48 hrs prior to preparing membranes 10 μg/ml of tetracycline is added to the culture media to induce receptor expression. To prepare membranes, cells are scraped and collected in 1× Dulbecco's phosphate buffered saline (Corning) and then pelleted at 1000 RPMs. The cell pellet is reconstituted in membrane preparation buffer (20 mM HEPES, 6 mM MgCl₂ and 1 mM EGTA, protease inhibitor tablets (Pierce), pH 7.4) and placed in a cell disruption vessel (Parr Instrument company) at 1000 PSI for 30 min on ice. The pressurized contents are then released and spun down at 1000 RPMs and the supernatant is collected and further centrifuged at 15,000 RPMs to pellet the membranes. The membrane pellet is resuspended in membrane preparation buffer, snap frozen and stored at −80° C. for later use.
Assay contents are then filtered through unifilter CF/C: microplates (PerkinElmer) pre-soaked with 0.5% BSA and washed with 9×400 μL of cold wash buffer (10 mM HEPES, 500 mM NaCl, 0.1% Tween-20, pH7.4). Assay plates are read using a Microbeta² (PerkinElmer) and Ki values for compounds are determined using a GraphPad Prism 9.3 non-linear regression analysis.

T1 sequence (Q969F8 whole entry): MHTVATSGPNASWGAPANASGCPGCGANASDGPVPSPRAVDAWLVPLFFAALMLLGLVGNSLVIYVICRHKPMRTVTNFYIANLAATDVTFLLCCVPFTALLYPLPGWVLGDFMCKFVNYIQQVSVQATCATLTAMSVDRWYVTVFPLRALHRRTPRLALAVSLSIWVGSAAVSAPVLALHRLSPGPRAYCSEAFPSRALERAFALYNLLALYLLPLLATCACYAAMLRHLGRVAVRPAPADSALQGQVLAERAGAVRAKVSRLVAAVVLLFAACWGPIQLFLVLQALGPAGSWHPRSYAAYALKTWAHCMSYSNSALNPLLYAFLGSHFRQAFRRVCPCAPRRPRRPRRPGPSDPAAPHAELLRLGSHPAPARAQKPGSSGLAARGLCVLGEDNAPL

Row | Ki [nM] | Binder
1 | < 10 | {DOTA}-G[dY][d4Pal]NTF[azaGly]L[X2]Y-NH2 (also: nonradioactive indium(III) chelated by DOTA, also called 193-In) [Indium complex of Compound 193]
2 | < 10 | {DOTA-Ahx}-[dY][dW]NTF[azaGly]L[X2][4Pal]-NH2 (also: nonradioactive indium(III) chelated by DOTA, also called 105-In) [In Complex of Compound 105]
3 | < 10 | {DOTA-Ahx}-F[azaGly]L[X2]W-NH2 (also: nonradioactive indium(III) chelated by DOTA, also called 2-In) [In Complex of Compound 2]
4 | < 10 | {DOTA-Ahx}-[dY][dW]NTF[azaGly]L[Api(1-amidino)]W-NH2 (also: nonradioactive indium(III) chelated by DOTA, also called 6-In) [In Complex of Compound 6]
5 | < 10 | X10-[dY]K(DOTA)NTF[azaGly]L[Api(1-amidino)]W-NH2 (also: indium(III) chelated by DOTA on Lys, also called 196-In) [In Complex of Compound 196]
6 | < 10 | {DOTA-Ahx}-[dY][dW]NTF[azaGly]L[X2]W-NH2 (also: nonradioactive indium(III) chelated by DOTA, also called 1-In) [In Complex of Compound 1]
7 | < 10 | {DOTA-Ahx}-[dY][dW]NTF[azaGly]L[X2]W-NH2 (also: nonradioactive gallium(III) chelated by DOTA, also called 1-Ga) [Ga Complex of Compound 1]
8 | < 10 | {DOTA-Ahx}-[dY][dW]NTF[azaGly]L[X2]W-NH2 (also: lutetium(III) chelated by DOTA, also called 1-Lu) [Lu Complex of Compound 1]
